The target in one experiment is GroEL SR-1 RW (E. coli) (UniProt P0A6F5). Nature of the experiment: FRET or BRET; stopped-flow intermolecular FRET from the apical domain tryptophan of the GroEL mutant to prebound acid-unfolded AEDANS-GroELwt (equimolar); decrease of FRET after addition of ATP and GroES. (In BRET a luciferase serves as donor, and the signal depends on an acceptor being close.)
The target of another experiment is T1, GroEL R231W (E. coli, UniProt P0A6F5 1-548, R231W).
T1 construct: GroEL, E. coli, with a unique tryptophan in the apical domain; Double ring 14-mer; copies: 14
As to the kind of experiment: stopped-flow tryptophan fluorescence; GroEL with prebound Gdn-HCl-unfolded MDH (5 min pre-incubation at 25°C); 0.625 µM GroEL oligomer; 1 mM ATP without or with equimolar GroES. The following applies: both partners purified.

This note sets out measurements from publication PMC3813556, “Probing the Dynamic Process of Encapsulation in Escherichia coli GroEL” (PLoS ONE, 2013).

For “AEDANS-labelled, acid-unfolded wild type GroEL (from UniProt P0A6F5 1-548) (natural protein)”, in the experiment with GroEL SR-1 RW (E. coli), the k of PhaseFRET2 (rate of release of the bound unfolded protein) amounted to 0.21 s⁻¹ and the k of PhaseFRET (rate of release of the bound unfolded protein) stood at 4.1 s⁻¹.

B1: GroES (natural protein, E. coli, UniProt P0A6F9 1-97, looked up)
chain: MNIRPLHDRVIVKRKEVETKSAGGIVLTGSAAAKSTRGEVLAVGNGRILENGEVKPLDVKVGDIVIFNDGYGVKSEKIDNEEVLIMSESDILAIVEA
notes: GroES, co-chaperonin of the E. coli chaperonin GroE; also called wild type GroES; co-chaperonin GroES
For B1, in the experiment with GroEL R231W, the binding result was “binds”.
